Source: publication PMC3861647, “Characterization of Fibrinogen Binding by Glycoproteins Srr1 and Srr2 of Streptococcus agalactiae*” (The Journal of Biological Chemistry, 2013)

Key:
[1] = target: T1, Srr2-BR (untagged recombinant binding region of Srr2) (Streptococcus agalactiae (strain COH1)); test: SPR; BIAcore T100; fibrinogen amine-coupled to a CM5 chip; Srr1-BR or Srr2-BR 1.25–160 μM flowed at 10 μl/min; KD from equilibrium responses; settings: both partners purified
T1 construct: I took it to be this one; also called untagged Srr2-BR; recombinant Srr2; source: E. coli, purified (nickel-nitrilotriacetic acid or anti-FLAG M2-agarose)

[2] = target: T2, Srr1-BR (untagged recombinant binding region of Srr1) (Streptococcus agalactiae (strain NCTC …)); test: as above; settings: both partners purified
T2 construct: I took it to be this one; also called untagged Srr1-BR; recombinant Srr1; source: E. coli, purified (nickel-nitrilotriacetic acid or anti-FLAG M2-agarose)
T2 sequence (P02671 36-866): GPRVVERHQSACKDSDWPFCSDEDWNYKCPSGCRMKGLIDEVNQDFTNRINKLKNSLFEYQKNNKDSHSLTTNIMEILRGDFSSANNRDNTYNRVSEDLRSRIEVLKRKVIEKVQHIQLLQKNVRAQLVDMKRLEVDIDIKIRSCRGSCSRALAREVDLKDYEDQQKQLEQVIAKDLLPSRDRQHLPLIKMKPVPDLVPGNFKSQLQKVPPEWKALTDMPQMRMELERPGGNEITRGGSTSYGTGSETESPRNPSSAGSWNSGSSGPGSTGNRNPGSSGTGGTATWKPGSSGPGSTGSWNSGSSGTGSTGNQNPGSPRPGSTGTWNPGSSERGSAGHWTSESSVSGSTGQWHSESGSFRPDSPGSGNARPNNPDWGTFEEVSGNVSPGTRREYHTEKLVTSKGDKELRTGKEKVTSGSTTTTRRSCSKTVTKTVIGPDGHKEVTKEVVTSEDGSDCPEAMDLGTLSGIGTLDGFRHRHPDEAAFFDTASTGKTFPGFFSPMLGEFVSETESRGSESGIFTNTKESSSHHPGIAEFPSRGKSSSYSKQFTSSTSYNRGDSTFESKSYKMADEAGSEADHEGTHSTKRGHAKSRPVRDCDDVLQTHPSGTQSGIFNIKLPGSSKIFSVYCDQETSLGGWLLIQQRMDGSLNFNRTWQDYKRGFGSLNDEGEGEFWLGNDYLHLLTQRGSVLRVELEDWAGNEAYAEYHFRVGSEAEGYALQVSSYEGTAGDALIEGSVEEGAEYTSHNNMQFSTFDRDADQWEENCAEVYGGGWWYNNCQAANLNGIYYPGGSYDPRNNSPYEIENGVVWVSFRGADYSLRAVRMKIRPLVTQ

T1 sequence (P02671 36-866): as above

B1: purified human fibrinogen (complex)
chain 1: ADSGEGDFLAEGGGVRGPRVVERHQSACKDSDWPFCSDEDWNYKCPSGCRMKGLIDEVNQDFTNRINKLKNSLFEYQKNNKDSHSLTTNIMEILRGDFSSANNRDNTYNRVSEDLRSRIEVLKRKVIEKVQHIQLLQKNVRAQLVDMKRLEVDIDIKIRSCRGSCSRALAREVDLKDYEDQQKQLEQVIAKDLLPSRDRQHLPLIKMKPVPDLVPGNFKSQLQKVPPEWKALTDMPQMRMELERPGGNEITRGGSTSYGTGSETESPRNPSSAGSWNSGSSGPGSTGNRNPGSSGTGGTATWKPGSSGPGSTGSWNSGSSGTGSTGNQNPGSPRPGSTGTWNPGSSERGSAGHWTSESSVSGSTGQWHSESGSFRPDSPGSGNARPNNPDWGTFEEVSGNVSPGTRREYHTEKLVTSKGDKELRTGKEKVTSGSTTTTRRSCSKTVTKTVIGPDGHKEVTKEVVTSEDGSDCPEAMDLGTLSGIGTLDGFRHRHPDEAAFFDTASTGKTFPGFFSPMLGEFVSETESRGSESGIFTNTKESSSHHPGIAEFPSRGKSSSYSKQFTSSTSYNRGDSTFESKSYKMADEAGSEADHEGTHSTKRGHAKSRPV
chain 2: QGVNDNEEGFFSARGHRPLDKKREEAPSLRPAPPPISGGGYRARPAKAAATQKKVERKAPDAGGCLHADPDLGVLCPTGCQLQEALLQQERPIRNSVDELNNNVEAVSQTSSSSFQYMYLLKDLWQKRQKQVKDNENVVNEYSSELEKHQLYIDETVNSNIPTNLRVLRSILENLRSKIQKLESDVSAQMEYCRTPCTVSCNIPVVSGKECEEIIRKGGETSEMYLIQPDSSVKPYRVYCDMNTENGGWTVIQNRQDGSVDFGRKWDPYKQGFGNVATNTDGKNYCGLPGEYWLGNDKISQLTRMGPTELLIEMEDWKGDKVKAHYGGFTVQNEANKYQISVNKYRGTAGNALMDGASQLMGENRTMTIHNGMFFSTYDRDNDGWLTSDPRKQCSKEDGGGWWYNRCHAANPNGRYYWGGQYTWDMAKHGTDDGVVWMNWKGSWYSMRKMSMKIRPFFPQQ
chain 3: YVATRDNCCILDERFGSYCPTTCGIADFLSTYQTKVDKDLQSLEDILHQVENKTSEVKQLIKAIQLTYNPDESSKPNMIDAATLKSRKMLEEIMKYEASILTHDSSIRYLQEIYNSNNQKIVNLKEKVAQLEAQCQEPCKDTVQIHDITGKDCQDIANKGAKQSGLYFIKPLKANQQFLVYCEIDGSGNGWTVFQKRLDGSVDFKKNWIQYKEGFGHLSPTGTTEFWLGNEKIHLISTQSAIPYALRVELEDWNGRTSTADYAMFKVGPEADKYRLTYAYFAGGDAGDAFDGFDFGDDPSDKFFTSHNGMQFSTWDNDNDKFEGNCAEQDGSGWWMNKCHAGHLNGVYYQGGTYSKASTPNGYDNGIIWATWKTRWYSMKKTTMKIIPFNRLTIGEGQQHHLGGAKQAGDV
modifications: plasma-derived disulfide-linked hexamer (AαBβγ)2, N-glycosylated; Aα taken as the 610-residue circulating form (paper's Aα(1-610)), γ as the major γA form with the C-terminus printed in the text …
**Q.** For B1, which Kd [1] is on record?
**A.** 3.7 µM

**Q.** What about the Kd [2] of the same binder?
**A.** 21 µM
